Reference: article PMC4353811
Substitutions are numbered along the chain they refer to.

What was measured:
Rad51;Psy3-Csm2 = Rad51;Psy3-Csm2 (Saccharomyces cerevisiae;Saccharomyces …, UniProt P25454;Q12318;P40465 1-400;1-242;1-213, |); experiment: EMSA and supershift
Psy3-Csm2-I83A/L87A = target: T1, Psy3-Csm2-I83A/L87A (Saccharomyces cerevisiae, UniProt Q12318;P40465 1-242;1-213, I83A;L87A;Csm2:); experiment: EMSA
T1 sequence 1: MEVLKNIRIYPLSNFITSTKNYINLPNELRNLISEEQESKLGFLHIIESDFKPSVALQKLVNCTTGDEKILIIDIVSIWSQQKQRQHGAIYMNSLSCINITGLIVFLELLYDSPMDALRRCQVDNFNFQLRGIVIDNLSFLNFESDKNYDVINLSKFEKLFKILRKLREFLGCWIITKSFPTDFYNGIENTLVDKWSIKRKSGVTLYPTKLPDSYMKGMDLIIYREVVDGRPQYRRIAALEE
T1 sequence 2: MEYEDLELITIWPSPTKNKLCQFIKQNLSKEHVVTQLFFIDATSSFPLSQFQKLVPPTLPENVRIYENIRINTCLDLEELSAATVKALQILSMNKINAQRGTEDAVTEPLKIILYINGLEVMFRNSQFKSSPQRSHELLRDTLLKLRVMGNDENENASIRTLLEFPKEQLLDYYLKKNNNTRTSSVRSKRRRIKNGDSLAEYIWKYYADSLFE

Psy3-Csm2-I40A/I83A = target: T2, Psy3-Csm2-I40A/I83A (Saccharomyces cerevisiae, UniProt Q12318;P40465 1-242;1-213, I40A;I83A;Csm2:); experiment: EMSA
T2 sequence 1: T1 sequence 1
T2 sequence 2: T1 sequence 2 with I40A, A87L

Psy3-Csm2 = target: T3, Psy3-Csm2 (Saccharomyces cerevisiae, UniProt Q12318;P40465 1-242;1-213); experiment: EMSA
T3 sequence 1: T1 sequence 1
T3 sequence 2: T1 sequence 2 with A83I, A87L

Measured: binding result

Sequence of Rad51;Psy3-Csm2 (P25454 whole entry, one chain of several): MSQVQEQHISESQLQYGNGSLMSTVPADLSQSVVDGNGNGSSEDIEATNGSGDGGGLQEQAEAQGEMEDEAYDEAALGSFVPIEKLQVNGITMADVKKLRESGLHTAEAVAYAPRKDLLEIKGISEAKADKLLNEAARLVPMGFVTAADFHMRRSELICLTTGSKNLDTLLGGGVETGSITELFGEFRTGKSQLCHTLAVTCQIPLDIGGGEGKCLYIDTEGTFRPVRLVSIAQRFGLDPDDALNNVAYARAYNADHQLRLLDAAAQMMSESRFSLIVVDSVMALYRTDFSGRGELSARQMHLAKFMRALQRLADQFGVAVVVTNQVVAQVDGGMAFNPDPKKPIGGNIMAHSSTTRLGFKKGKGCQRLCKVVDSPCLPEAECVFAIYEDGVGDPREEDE

B1: 60-mer oligo-ssDNA (ssDNA)
DNA: TGGGTGAACCTGCAGGTGGGCAAAGATGTCCTAGCAATCCATTGTCTATGACGTCAAGCT
binds: all assays above
